We go through three substances from PMC9680610.

Common to all, as to test: mass photometry
Assay [1] deals with SARS-CoV-2 spike, wild-type (Wuhan-hu-1 strain), HexaPro stabilised (K986P, V987P, F817P, A892P, A89 (SARS-CoV-2 (Wuhan-hu-1 strain)) (UniProt P0DTC2)).
In assay [2] the target is SARS-CoV-2 spike, wild-type (Wuhan-hu-1 strain), 2P stabilised (K986P, V987P), soluble recombinant (SARS-CoV-2 (Wuhan-hu-1 strain)) (UniProt P0DTC2).
For assay [3], the target named is SARS-CoV-2 spike, Omicron (B.1.1.529 strain), HexaPro stabilised (SARS-CoV-2 (Omicron B.1.1.529 strain)) (UniProt P0DTC2).
Assay [4] has as its target SARS-CoV-2 spike, Omicron (B.1.1.529 strain), 2P stabilised (SARS-CoV-2 (Omicron B.1.1.529 strain)) (UniProt P0DTC2).

“SARS-CoV-2 spike, wild-type (Wuhan-hu-1 strain), HexaPro stabilised (K986P, V987P, F817P, A892P, A89 (from UniProt P0DTC2 14-1208) (natural protein)” had a percent of spike counts that are trimer in assay [1] of 90%.

With “angiotensin-converting enzyme-2 (ACE2) with the neck domain (from UniProt Q9BYF1 18-740) (receptor)”, the percent of spike with two ACE2 bound in assay [1] was 7%; in assay [2] it was 8%. In addition, the stoichiometry N in assay [1], in assay [2], in assay [3] and in assay [4] was less than 3 throughout. Further, the percent of spike with one ACE2 bound in assay [2] came to 42%.

For “angiotensin-converting enzyme-2 (ACE2) without the neck domain (from UniProt Q9BYF1 18-740) (receptor)”, the stoichiometry N in assay [3] and in assay [4] was less than 3 throughout.
